Data on 94 variants can be found in the supplement of paper PMC10567573.

B1: GFOD1 (parent)
chain: SDDFCTFQMVLEGGVCCTVTLNFN
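Further: lentivirally expressed fusions sorted by FACS into six bins by GFP to DsRed ratio, PSI derived from sequencing read proportions per bin multiplied by bin number.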

Variants of B1 are the subject of the series. Put plainly: protein stability index of a GFP-peptide fusion (GPS, HEK-293T) (PSI 1-6); higher = more stable. The settings on record: c terminus: a fixed tail appended.
Consider SDDFCTFQMVLEGGVCCTKTLNFN [V19K], for which the protein stability index came to 1.22.
For the variant SDDFCTFQMVLEGGVCCTWTLNFN [V19W], the protein stability index worked out at 2.61.
As for SDDFCTFQMVLEGGVCCTGTLNFN [V19G], the figure is 2.02.
As for SDDFCTFQMVLEGGVCCTLTLNFN [V19L], the figure is 3.49; as for SDDFCTFQMVLEGGVCCTFTLNFN [V19F], 2.73; as for SDDFCTFQMVLEGGVCCTCTLNFN [V19C], 3.15.
The result for SDDFCTFQMVLEGGVCCTSTLNFN [V19S] reads 2.07; that for SDDFCTFQMVLEGGVCCTDTLNFN [V19D], 2.65; that for SDDFCTFQMVLEGGVCCTQTLNFN [V19Q], 1.75.
Turning to SDDFCTFQMVLEGGVCCTNTLNFN [V19N], the protein stability index amounted to 2.07.
As for SDDFCTFQMVLEGGVCCTYTLNFN [V19Y], the figure is 2.38; as for SDDFCTFQMVLEGGVCCTRTLNFN [V19R], 1.9.
Take SDDFCTFQMVLEGGVCCTITLNFN [V19I]: the protein stability index is 3.22.
In the case of SDDFCTFQMVLEGGVCCTATLNFN [V19A], the protein stability index came out at 1.95.
For SDDFCTFQMVLEGGVCCTHTLNFN [V19H], the protein stability index was 2.41.
On to SDDFCTFQMVLEGGVCCTETLNFN [V19E], for which the protein stability index is 2.11.
As to SDDFCTFQMVLEGGVCCTTTLNFN [V19T], the protein stability index stood at 3.14.
As for SDDFCTFQMVLEGGVCCTPTLNFN [V19P], the figure is 2.12.
As to SDDFCTFQMVLEGGLCCTVTLNFN [V15L], the protein stability index was found to be 4.13.
As for SDDFCTFQMVLEGGMCCTVTLNFN [V15M], the figure is 3.15; as for SDDFCTFQMVLEGGDCCTVTLNFN [V15D], 2.58.
Consider SDDFCTFQMVLEGGECCTVTLNFN [V15E], for which the protein stability index is 2.33.
Regarding SDDFCTFQMVLEGGQCCTVTLNFN [V15Q], the protein stability index is 2.94.
The result for SDDFCTFQMVLEGGHCCTVTLNFN [V15H] reads 4.25; that for SDDFCTFQMVLEGGPCCTVTLNFN [V15P], 2.97; that for SDDFCTFQMVLEGGKCCTVTLNFN [V15K], 2.27.
As for SDDFCTFQMVLEGGICCTVTLNFN [V15I], the protein stability index came to 1.72.
The result for SDDFCTFQMVLEGGCCCTVTLNFN [V15C] reads 2.55; that for SDDFCTFQMVLEGGYCCTVTLNFN [V15Y], 4.1.
With SDDFCTFQMVLEGGFCCTVTLNFN [V15F], the protein stability index was found to be 3.41.
SDDFCTFQMVLEGGRCCTVTLNFN [V15R]: the protein stability index is 3.84.
Consider SDDFCTFQMVLEGGVCPTVTLNFN [C17P], for which the protein stability index was 2.66.
As for SDDFCTFQMVLEGGVCQTVTLNFN [C17Q], the figure is 2.87; as for SDDFCTFQMVLEGGVCATVTLNFN [C17A], 2.49; as for SDDFCTFQMVLEGGVCTTVTLNFN [C17T], 3.25.
Consider SDDFCTFQMVLEGGVCLTVTLNFN [C17L], for which the protein stability index was 3.21.
For SDDFCTFQMVLEGGVCHTVTLNFN [C17H], the protein stability index was found to be 2.13.
In the case of SDDFCTFQMVLEGGVCVTVTLNFN [C17V], the protein stability index came out at 1.89.
As for SDDFCTFQMVLEGGVCETVTLNFN [C17E], the figure is 1.21; as for SDDFCTFQMVLEGGVCDTVTLNFN [C17D], 1.8; as for SDDFCTFQMVLEGGVCNTVTLNFN [C17N], 2.77.
As for SDDFCTFQMVLEGGVCFTVTLNFN [C17F], the figure is 3.18; as for SDDFCTFQMVLEGGVCKTVTLNFN [C17K], 2.52; as for SDDFCTFQMVLEGGVCWTVTLNFN [C17W], 2.79.
As for SDDFCTFQMVLEGGVCITVTLNFN [C17I], the figure is 2.36; as for SDDFCTFQMVLEGGVCCTVCLNFN [T20C], 1.75.
Consider SDDFCTFQMVLEGGVCCTVFLNFN [T20F], for which the protein stability index stood at 3.21.
As for SDDFCTFQMVLEGGVCCTVHLNFN [T20H], the figure is 2.03; as for SDDFCTFQMVLEGGVCCTVLLNFN [T20L], 1.03.
SDDFCTFQMVLEGGVCCTVMLNFN [T20M]: the protein stability index was 2.71.
The result for SDDFCTFQMVLEGGVVCTVTLNFN [C16V] reads 2.46; that for SDDFCTFQMVLEGGVWCTVTLNFN [C16W], 2.8.
The result for SDDFCTFQMVLEGGVGCTVTLNFN [C16G] reads 3.63; that for SDDFCTFQMVLEGGVNCTVTLNFN [C16N], 2.89; that for SDDFCTFQMVLEGGVICTVTLNFN [C16I], 3.88.
As for SDDFCTFQMVLEGGVTCTVTLNFN [C16T], the figure is 3.75.
With SDDFCTFQMVLEGGVECTVTLNFN [C16E], the protein stability index amounted to 2.24.
The result for SDDFCTFQMVLEGGVPCTVTLNFN [C16P] reads 2.65; that for SDDFCTFQMVLEGGVSCTVTLNFN [C16S], 3.6; that for SDDFCTFQMVLEGGVQCTVTLNFN [C16Q], 2.45.
Regarding SDDFCTFQMVLEGGVKCTVTLNFN [C16K], the protein stability index came out at 2.95.
As for SDDFCTFQMVLEGGVFCTVTLNFN [C16F], the figure is 1.78; as for SDDFCTFQMVLEGGVYCTVTLNFN [C16Y], 2.76; as for SDDFCTFQMVLEGGVDCTVTLNFN [C16D], 2.56.
The result for SDDFCTFQMVLEGGVHCTVTLNFN [C16H] reads 3.09; that for SDDFCTFQMVLEGGVACTVTLNFN [C16A], 4.12.
As for SDDFCTFQMVLEGAVCCTVTLNFN [G14A], the protein stability index is 2.87.
SDDFCTFQMVLEGPVCCTVTLNFN [G14P]: the protein stability index is 2.84.
As for SDDFCTFQMVLEGQVCCTVTLNFN [G14Q], the protein stability index came out at 1.74.
The result for SDDFCTFQMVLEGNVCCTVTLNFN [G14N] reads 1.78.
As for SDDFCTFQMVLEGLVCCTVTLNFN [G14L], the figure is 3.96; as for SDDFCTFQMVLEGRVCCTVTLNFN [G14R], 1.6.
The result for SDDFCTFQMVLEGKVCCTVTLNFN [G14K] reads 2.74; that for SDDFCTFQMVLEGMVCCTVTLNFN [G14M], 2.54; that for SDDFCTFQMVLEGEVCCTVTLNFN [G14E], 2.08.
With SDDFCTFQMVLEGYVCCTVTLNFN [G14Y], the protein stability index turned out to be 1.83.
In the case of SDDFCTFQMVLEGDVCCTVTLNFN [G14D], the protein stability index was 3.01.
In the case of SDDFCTFQMVLEGCVCCTVTLNFN [G14C], the protein stability index was determined as 2.19.
The result for SDDFCTFQMVLEGWVCCTVTLNFN [G14W] reads 2.93; that for SDDFCTFQMVLEGGVCCRVTLNFN [T18R], 1.48.
The result for SDDFCTFQMVLEGGVCCAVTLNFN [T18A] reads 3.01; that for SDDFCTFQMVLEGGVCCYVTLNFN [T18Y], 2.44; that for SDDFCTFQMVLEGGVCCNVTLNFN [T18N], 2.33.
The result for SDDFCTFQMVLEGGVCCWVTLNFN [T18W] reads 1.95; that for SDDFCTFQMVLEGGVCCGVTLNFN [T18G], 3.96.
With SDDFCTFQMVLEGGVCCCVTLNFN [T18C], the protein stability index was found to be 2.71.
As for SDDFCTFQMVLEGGVCCFVTLNFN [T18F], the figure is 2.37; as for SDDFCTFQMVLEGGVCCVVTLNFN [T18V], 3.91; as for SDDFCTFQMVLEGGVCCIVTLNFN [T18I], 3.52.
In the case of SDDFCTFQMVLEGGVCCLVTLNFN [T18L], the protein stability index came out at 2.5.
Regarding SDDFCTFQMVLEGGVCCDVTLNFN [T18D], the protein stability index is 3.76.
The result for SDDFCTFQMVLEGGVCCMVTLNFN [T18M] reads 2.07; that for SDDFCTFQMVLEGGVCCEVTLNFN [T18E], 3.76.
As for SDDFCTFQMVLEGGVCCHVTLNFN [T18H], the figure is 2.14.
